Assay results published in paper PMC10836720.

Biological target: A. baumannii 118362 Family 2A encapsulin shell protein (J517_0527) (Acinetobacter baumannii 118362)
Experiment: cryo-EM structure

## A. baumannii 118362 Family 2A encapsulin shell protein (J517_0527) (natural protein)
  stoichiometry N: 60 subunits
